Numbering of substitutions follows the chain as printed. In names and notes the source's numbering stands.

Holding throughout (conditions): tags: N-terminal SV40 NLS and 3xFLAG; C-terminal nucleoplasmin NLS
The target of data set [1] is T1, LPG10168 (Bacillus toyonensis).
T1 chain: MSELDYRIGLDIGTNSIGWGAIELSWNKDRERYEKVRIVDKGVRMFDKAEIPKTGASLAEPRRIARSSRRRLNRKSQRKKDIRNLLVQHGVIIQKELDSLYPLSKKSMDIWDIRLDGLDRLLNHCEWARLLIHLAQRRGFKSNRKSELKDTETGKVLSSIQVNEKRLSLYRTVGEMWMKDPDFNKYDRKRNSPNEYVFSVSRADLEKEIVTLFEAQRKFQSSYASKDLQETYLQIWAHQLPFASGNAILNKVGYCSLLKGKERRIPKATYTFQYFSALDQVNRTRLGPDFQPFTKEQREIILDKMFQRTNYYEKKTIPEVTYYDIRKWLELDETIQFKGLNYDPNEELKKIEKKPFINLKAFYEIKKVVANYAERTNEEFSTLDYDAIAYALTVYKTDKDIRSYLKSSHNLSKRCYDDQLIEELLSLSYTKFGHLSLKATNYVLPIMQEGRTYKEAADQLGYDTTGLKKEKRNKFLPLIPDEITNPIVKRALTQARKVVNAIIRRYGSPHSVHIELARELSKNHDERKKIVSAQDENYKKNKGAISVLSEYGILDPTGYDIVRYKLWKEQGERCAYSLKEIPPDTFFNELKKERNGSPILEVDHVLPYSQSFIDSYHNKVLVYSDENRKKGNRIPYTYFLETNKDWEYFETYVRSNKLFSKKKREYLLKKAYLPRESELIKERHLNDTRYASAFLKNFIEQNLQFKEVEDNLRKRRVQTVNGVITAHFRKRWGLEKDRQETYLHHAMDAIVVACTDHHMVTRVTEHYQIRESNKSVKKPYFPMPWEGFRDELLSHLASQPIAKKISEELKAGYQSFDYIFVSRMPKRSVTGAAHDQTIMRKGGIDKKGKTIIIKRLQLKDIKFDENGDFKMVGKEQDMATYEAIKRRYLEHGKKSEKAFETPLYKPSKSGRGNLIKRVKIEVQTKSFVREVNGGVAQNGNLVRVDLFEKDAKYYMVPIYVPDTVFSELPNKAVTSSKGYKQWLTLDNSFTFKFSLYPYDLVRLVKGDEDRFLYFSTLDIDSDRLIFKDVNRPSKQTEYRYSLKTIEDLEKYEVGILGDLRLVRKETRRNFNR
In words: cell_activity; PAM nnnnCC; HEK293T.
Description: (§1) Several of the constructs described above were introduced into mammalian cells. One day prior to transfection, 1×10⁵ HEK293T cells (Sigma) were plated in 24-well dishes in Dulbecco's modified Eagle medium (DMEM) plus 10% (vol/vol) fetal bovine serum (Gibco) and 1% Penicillin-Streptomycin (Gibco). The next day when the cells were at 50-60% confluency, 500 ng of an RGN expression plasmid plus 500 ng of a single gRNA expression plasmid were co-transfected using 1.5 μL of Lipofectamine 3000 (Thermo Scientific) per well, following the manufacturer's instructions. After 48 hours of growth, total genomic DNA was harvested using a genomic DNA isolation kit (Machery-Nagel) according to the manufacturer's instructions.
(§2) Additionally, products from PCR #2 containing Illumina overhang sequences underwent library preparation following the Illumina 16S Metagenomic Sequencing Library protocol. Deep sequencing was performed on an Illumina Mi-Seq platform by a service provider (MOGene). Typically, 200,000 of 250 bp paired-end reads (2×100,000 reads) are generated per amplicon. […] Output alignments were hand-curated to confirm insertion and deletion sites as well as identify microhomology sites at the recombination sites. All experiments were performed in human cells.

Data set [2] has as its target T2, LPG10167 (Bacillus toyonensis).
T2 chain: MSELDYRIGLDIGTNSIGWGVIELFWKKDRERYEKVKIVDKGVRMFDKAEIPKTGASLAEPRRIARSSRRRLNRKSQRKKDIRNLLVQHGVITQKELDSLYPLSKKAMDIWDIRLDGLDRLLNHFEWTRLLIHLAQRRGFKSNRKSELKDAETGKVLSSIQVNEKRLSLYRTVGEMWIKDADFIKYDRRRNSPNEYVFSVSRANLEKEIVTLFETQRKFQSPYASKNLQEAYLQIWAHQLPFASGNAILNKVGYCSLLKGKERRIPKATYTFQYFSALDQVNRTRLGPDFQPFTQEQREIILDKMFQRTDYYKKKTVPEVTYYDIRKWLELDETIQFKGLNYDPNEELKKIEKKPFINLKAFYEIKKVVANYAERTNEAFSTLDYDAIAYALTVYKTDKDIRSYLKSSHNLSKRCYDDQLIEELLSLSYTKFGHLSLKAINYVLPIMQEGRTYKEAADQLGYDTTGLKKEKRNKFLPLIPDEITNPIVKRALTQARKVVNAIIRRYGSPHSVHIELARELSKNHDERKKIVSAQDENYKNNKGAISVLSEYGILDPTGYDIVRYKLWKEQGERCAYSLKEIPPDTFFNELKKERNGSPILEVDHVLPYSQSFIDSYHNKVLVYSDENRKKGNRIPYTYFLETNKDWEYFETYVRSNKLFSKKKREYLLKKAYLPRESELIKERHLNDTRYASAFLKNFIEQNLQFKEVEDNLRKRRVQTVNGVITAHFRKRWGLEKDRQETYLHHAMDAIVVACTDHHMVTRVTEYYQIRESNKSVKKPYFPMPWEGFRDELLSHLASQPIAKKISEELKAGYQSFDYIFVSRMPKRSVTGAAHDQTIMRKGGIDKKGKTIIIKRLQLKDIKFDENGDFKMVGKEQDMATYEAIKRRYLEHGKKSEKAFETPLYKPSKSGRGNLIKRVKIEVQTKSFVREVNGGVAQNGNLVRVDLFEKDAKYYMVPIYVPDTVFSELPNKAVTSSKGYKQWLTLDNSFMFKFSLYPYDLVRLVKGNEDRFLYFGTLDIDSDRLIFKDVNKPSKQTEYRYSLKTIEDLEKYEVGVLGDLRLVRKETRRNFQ
Description: cell_activity; PAM nnnnCC; HEK293T.
Description: as §1, §2

Data set [3] has as its target T3, LPG10208.
T3 chain: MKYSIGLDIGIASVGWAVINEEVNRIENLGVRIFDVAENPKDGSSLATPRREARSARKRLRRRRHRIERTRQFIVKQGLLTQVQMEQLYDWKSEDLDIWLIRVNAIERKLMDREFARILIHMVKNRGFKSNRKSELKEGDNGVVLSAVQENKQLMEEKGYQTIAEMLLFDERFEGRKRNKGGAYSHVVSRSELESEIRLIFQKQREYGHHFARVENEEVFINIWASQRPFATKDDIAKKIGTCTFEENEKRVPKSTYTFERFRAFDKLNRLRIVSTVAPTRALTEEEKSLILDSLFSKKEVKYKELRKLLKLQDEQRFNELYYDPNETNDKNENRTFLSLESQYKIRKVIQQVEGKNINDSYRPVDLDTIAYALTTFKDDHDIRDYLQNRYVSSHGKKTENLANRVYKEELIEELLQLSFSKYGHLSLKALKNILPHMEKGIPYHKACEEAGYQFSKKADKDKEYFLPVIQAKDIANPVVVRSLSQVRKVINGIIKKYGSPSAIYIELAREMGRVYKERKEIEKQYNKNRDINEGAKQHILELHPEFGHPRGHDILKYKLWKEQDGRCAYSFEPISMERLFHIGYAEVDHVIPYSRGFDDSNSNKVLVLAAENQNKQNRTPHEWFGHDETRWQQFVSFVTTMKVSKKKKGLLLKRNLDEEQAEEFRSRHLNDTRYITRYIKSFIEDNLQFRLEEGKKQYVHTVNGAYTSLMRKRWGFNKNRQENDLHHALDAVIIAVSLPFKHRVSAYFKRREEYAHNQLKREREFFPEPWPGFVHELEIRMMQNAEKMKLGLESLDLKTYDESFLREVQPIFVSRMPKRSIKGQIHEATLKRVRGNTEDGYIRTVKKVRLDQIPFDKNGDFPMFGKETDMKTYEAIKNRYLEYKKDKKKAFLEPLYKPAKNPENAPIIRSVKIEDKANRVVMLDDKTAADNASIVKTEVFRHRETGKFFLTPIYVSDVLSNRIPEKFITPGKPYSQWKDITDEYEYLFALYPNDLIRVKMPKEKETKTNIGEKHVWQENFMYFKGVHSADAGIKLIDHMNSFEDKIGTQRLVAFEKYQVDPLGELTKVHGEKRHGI
In words: cell_activity; PAM SEQ ID NOs 146, 147; HEK293T.
Description: (§3) Guide RNAs targeting several genes were designed for robustness testing of multiple RGNs in HEK293T cells by plasmid delivery. These guides were tested under optimal editing conditions for HEK293T cells in a 96-well plate which involved seeding 10,000-15,000 cells on day 1, lipofection using Lipofectamine 3000 on day 2, and genomic DNA extraction on day 4. […] Then, 0.3 μl of Lipofectamine 3000 diluted in Opti-MEM was added to the plasmid mixture and incubated for 15 mins before adding to cells.

Data set [4] concerns the target T4, LPG10204.
T4 chain: T3 chain with E450Q, L467S
In words: cell_activity; PAM SEQ ID NOs 146, 147; HEK293T.
Description: as §3

B1: SGN003669 ; B2M target SGN003669 (ssRNA ; dsDNA)
RNA: UGACAGCAUUCGGGCCGAGAUGUCUGUCAUAGUUCCAUUAAAGCCAUUAAAGAAUGGCUUUGAUGUUUCUAUGAUAAGGGUUUCGGCCCGUGGCGUUGGGGAUCGCCUGCCCAUUUCAAUGGGCUUCUCCCCAUUU
DNA 1: TGACAGCATTCGGGCCGAGATGTCT
DNA 2: AGACATCTCGGCCCGAATGCTGTCA
Take B1: the activity in data set [1] was 3.68 % indels.

B2: SGN003667 ; B2M target SGN003667 (ssRNA ; dsDNA)
RNA: AAGAGAGAGUAGCGCGAGCACAGCUGUCAUAGUUCCAUUAAAGCCAUUAAAGAAUGGCUUUGAUGUUUCUAUGAUAAGGGUUUCGGCCCGUGGCGUUGGGGAUCGCCUGCCCAUUUCAAUGGGCUUCUCCCCAUUU
DNA 1: AAGAGAGAGTAGCGCGAGCACAGCT
DNA 2: AGCTGTGCTCGCGCTACTCTCTCTT
On to B2, for which the activity in data set [2] worked out at 1.16 % indels.

B3: SGN005373 ; SGN005373 target (LPG10208) (ssRNA ; dsDNA)
RNA: UAGCCUCCAGGCCAGAAAGAGAGAGGCCAUAAUUCCUCCAAAGGGAGUUAUUAUGGUAAGGCAUUAUGCCGUGGCGUUGGGGAUCGCCUACAUCCGAUUAGAUCGGAUUCUCCCUAAAAAUGACUAACUUUGUUUAGUCAUUUUUUU
DNA 1: TAGCCTCCAGGCCAGAAAGAGAGAG
DNA 2: CTCTCTCTTTCTGGCCTGGAGGCTA
As for B3, the activity in data set [3] was found to be 37.5 % indels.

B4: SGN005374 ; SGN005374 target (ssRNA ; dsDNA)
RNA: AGUAGCGCGAGCACAGCUAAGGCCAGCCAUAAUUCCUCCAAAGGGAGUUAUUAUGGUAAGGCAUUAUGCCGUGGCGUUGGGGAUCGCCUACAUCCGAUUAGAUCGGAUUCUCCCUAAAAAUGACUAACUUUGUUUAGUCAUUUUUUU
DNA 1: AGTAGCGCGAGCACAGCTAAGGCCA
DNA 2: TGGCCTTAGCTGTGCTCGCGCTACT
As to B4, the activity in data set [4] is 37.5 % indels.

B5: SGN005374 ; SGN005374 target (LPG10208) (ssRNA ; dsDNA)
RNA: B4 RNA
DNA 1: AGTAGCGCGAGCACAGCTAAGGCCA
DNA 2: TGGCCTTAGCTGTGCTCGCGCTACT
In data set [3], B5 returned an activity of 47.2 % indels.

B6: SGN003668 ; B2M target SGN003668 (ssRNA ; dsDNA)
RNA: GGAGAGACUCACGCUGGAUAGCCUCGUCAUAGUUCCAUUAAAGCCAUUAAAGAAUGGCUUUGAUGUUUCUAUGAUAAGGGUUUCGGCCCGUGGCGUUGGGGAUCGCCUGCCCAUUUCAAUGGGCUUCUCCCCAUUU
DNA 1: GGAGAGACTCACGCTGGATAGCCTC
DNA 2: GAGGCTATCCAGCGTGAGTCTCTCC
In data set [1], B6 registered an activity of 0.61 % indels.

B7: SGN005382 ; SGN005382 target (ssRNA ; dsDNA)
RNA: CUCUCUUUCUGGCCUGGAGGCUAUCGCCAUAAUUCCUCCAAAGGGAGUUAUUAUGGUAAGGCAUUAUGCCGUGGCGUUGGGGAUCGCCUACAUCCGAUUAGAUCGGAUUCUCCCUAAAAAUGACUAACUUUGUUUAGUCAUUUUUUU
DNA 1: CTCTCTTTCTGGCCTGGAGGCTATC
DNA 2: GATAGCCTCCAGGCCAGAAAGAGAG
In data set [4], B7 displayed an activity of 25.5 % indels.

The values above are taken from patent US20260125711, “RNA-GUIDED NUCLEASES AND ACTIVE FRAGMENTS AND VARIANTS THEREOF AND METHODS OF USE” (Life Edit Therapeutics, Inc., published 2026).
